For 1 substance, Intensity (AU) results are on record in patent US20140249052A1.

In the assay the target is Bio-GrBP5 (biotin-graphite binding peptide fusion, Bio-…). In words: integrated photoluminescence at 605 nm (514 nm laser) of SA-QD immobilised on bio-GrBP5 nanowires on graphite; the row 'SA-QD Bare' (38019.9, Std. Dev. 8427) is on graphite without peptide.

In turn, “Cd-Se Qdot 605-streptavidin conjugate (Q10101MP, Life Technologies) (from UniProt P22629 37-163)” registered an Intensity (AU) of 88200 AU.
